Values of other authors in paper PMC10795913 (The Journal of Clinical Endocrinology and Metabolism, 2023).

Tested on: patients
Details: different assays, not directly comparable; cited from earlier work

Substance: albiglutide
- ADA incidence in published studies: 2.5%

Substance: dulaglutide
- ADA incidence in published studies: up to 4.1%
